Measured values as given in article PMC10448276, “Mechanisms controlling membrane recruitment and activation of the autoinhibited SHIP1 inositol 5-phosphatase” (The Journal of Biological Chemistry, 2023).
Non-standard residues stand in square brackets, D forms with d. No end group written: not given here. pY = N[C@@H](Cc1ccc(OP(=O)(O)O)cc1)C(=O)O

B1: pY-ITIM, phosphotyrosine peptide from the immunoreceptor tyrosine inhibitory motif (ITIM) of the FcγRIIB receptor (peptide)
peptide: CKTEAENTIT[pY]SLIK
modifications: also: N-terminal Cys coupled to maleimide headgroup of MCC-PE lipid in membrane-conjugated experiments
notes: cysteine added to the N terminus for coupling to the maleimide lipid; the tyrosine is phosphorylated; Used in solution (100 μM) or conjugated to supported lipid bilayers with 2% MCC-PE; also called pY peptide; ITIM peptide; source: synthetic peptide (Elim Biopharmaceuticals)
B2: mNG-SHIP1 (FL, 1–1188 aa), full-length human Src homology 2 domain–containing inositol 5-phosphatase 1 (enzyme, UniProt Q92835-2 1-1188, looked up)
chain: MVPCWNHGNITRSKAEELLSRTGKDGSFLVRASESISRAYALCVLYRNCVYTYRILPNEDDKFTVQASEGVSMRFFTKLDQLIEFYKKENMGLVTHLQYPVPLEEEDTGDDPEEDTESVVSPPELPPRNIPLTASSCEAKEVPFSNENPRATETSRPSLSETLFQRLQSMDTSGLPEEHLKAIQDYLSTQLAQDSEFVKTGSSSLPHLKKLTTLLCKELYGEVIRTLPSLESLQRLFDQQLSPGLRPRPQVPGEANPINMVSKLSQLTSLLSSIEDKVKALLHEGPESPHRPSLIPPVTFEVKAESLGIPQKMQLKVDVESGKLIIKKSKDGSEDKFYSHKKILQLIKSQKFLNKLVILVETEKEKILRKEYVFADSKKREGFCQLLQQMKNKHSEQPEPDMITIFIGTWNMGNAPPPKKITSWFLSKGQGKTRDDSADYIPHDIYVIGTQEDPLSEKEWLEILKHSLQEITSVTFKTVAIHTLWNIRIVVLAKPEHENRISHICTDNVKTGIANTLGNKGAVGVSFMFNGTSLGFVNSHLTSGSEKKLRRNQNYMNILRFLALGDKKLSPFNITHRFTHLFWFGDLNYRVDLPTWEAETIIQKIKQQQYADLLSHDQLLTERREQKVFLHFEEEEITFAPTYRFERLTRDKYAYTKQKATGMKYNLPSWCDRVLWKSYPLVHVVCQSYGSTSDIMTSDHSPVFATFEAGVTSQFVSKNGPGTVDSQGQIEFLRCYATLKTKSQTKFYLEFHSSCLESFVKSQEGENEEGSEGELVVKFGETLPKLKPIISDPEYLLDQHILISIKSSDSDESYGEGCIALRLEATETQLPIYTPLTHHGELTGHFQGEIKLQTSQGKTREKLYDFVKTERDESSGPKTLKSLTSHDPMKQWEVTSRAPPCSGSSITEIINPNYMGVGPFGPPMPLHVKQTLSPDQQPTAWSYDQPPKDSPLGPCRGESPPTPPGQPPISPKKFLPSTANRGLPPRTQESRPSDLGKNAGDTLPQEDLPLTKPEMFENPLYGSLSSFPKPAPRKDQESPKMPRKEPPPCPEPGILSPSIVLTKAQEADRGEGPGKQVPAPRLRSFTCSSSAEGRAAGGDKSQGKPKTPVSSQAPVPAKRPIKPSRSEINQQTPPTPTPRPPLPVKSPAVLHLQHSKGRDYRDNTELPHHGKHRPEEGPPGPLGRTAMQ

How the values were obtained:
[1] = molecular target: B2; assay: TIRF microscopy on supported lipid bilayers (bulk membrane recruitment); 5 nM mNG-SHIP1 construct in solution; pY-ITIM peptide covalently conjugated to maleimide lipid in the SLB (96% DOPC, 2% PI(3,4,5)P3, 2% MCC-PE); 23 °C; conditions: both partners purified
[2] = molecular target: B1; assay: cell-based or functional assay

Row | binding result [1] | lipid phosphatase activity of 20 nM FL SHIP1 on SLB (PI(3,4,5)P3 dephosphorylation, Grp1-AF647 sensor, reaction half time) with 100 μM pY-ITIM in solution [2] [fold] | Binder
1 | binds |  | B1
2 |  | ~5 | B2
